In patent US20220389465A1, “METHODS OF REDUCING BIURET IN UREA COMPOSITIONS” (Regents of the University of Minnesota, priority 2019, published 2022) one finds Km data, which are given here for 1 substance.

In the series the test system is T1, NC(=O)NC(N)=O.
T1 construct: six-histidine tag (C); made in house; host or cells: Escherichia coli BL21(DE3)
Kind of series: Inhibition of biuret hydrolase by urea, kinetic constants. In kind it is biochemical.

Chain of biuret hydrolase (Rhizobium johnstonii 3841) (chain, as listed by the source): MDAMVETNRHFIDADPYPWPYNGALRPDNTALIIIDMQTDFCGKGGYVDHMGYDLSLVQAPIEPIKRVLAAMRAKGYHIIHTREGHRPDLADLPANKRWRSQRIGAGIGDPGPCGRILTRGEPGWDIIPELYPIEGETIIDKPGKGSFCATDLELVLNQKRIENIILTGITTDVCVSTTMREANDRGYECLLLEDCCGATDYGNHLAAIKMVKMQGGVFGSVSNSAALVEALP

For the substance “biuret hydrolase (Rhizobium johnstonii 3841)”, the Km – broadly, the substrate concentration at which the rate is half of its maximum – was found to be 23 µM.
